Test results as given in patent publication US20200283521A1 (GRANULAR THERAPEUTICS, published 2020).
Read-outs that look alike come from different tables or passages of the source.

What was measured:
[1] = target: T1, human C-KIT-Fc (human, UniProt P10721 26-524); assay: direct ELISA at 1 µg/ml
T1 construct: also called biotinylated human C-KIT-Fc; not shown: Fc part not described

[2] = target: T2, cynomolgus monkey C-KIT-Fc (cynomolgus monkey); assay: direct ELISA at 1 µg/ml
T2 construct: also called cyno C-KIT-Fc

[3] = target: T1, human C-KIT-Fc; assay: HTRF competition vs Tb-h37M IgG1
[4] = target: T2, cynomolgus monkey C-KIT-Fc; assay: HTRF competition vs Tb-h37M IgG1
[5] = target: T3, hLTBR-Fc (human, UniProt P36941); assay: direct ELISA on coated protein, IgG1
T3 construct: Fc fusion; member of the panel m9
T3 sequence (P36941 28-227 limits assumed): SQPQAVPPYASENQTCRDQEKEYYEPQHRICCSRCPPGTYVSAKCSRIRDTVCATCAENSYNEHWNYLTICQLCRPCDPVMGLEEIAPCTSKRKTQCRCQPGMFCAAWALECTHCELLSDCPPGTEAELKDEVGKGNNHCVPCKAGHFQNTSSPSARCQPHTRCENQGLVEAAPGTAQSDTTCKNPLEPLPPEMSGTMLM

[6] = target: T4, hDR6-Fc (human, UniProt O75509); assay: direct ELISA on coated protein, IgG1
T4 construct: Fc fusion; member of the panel m9
T4 sequence (looked up): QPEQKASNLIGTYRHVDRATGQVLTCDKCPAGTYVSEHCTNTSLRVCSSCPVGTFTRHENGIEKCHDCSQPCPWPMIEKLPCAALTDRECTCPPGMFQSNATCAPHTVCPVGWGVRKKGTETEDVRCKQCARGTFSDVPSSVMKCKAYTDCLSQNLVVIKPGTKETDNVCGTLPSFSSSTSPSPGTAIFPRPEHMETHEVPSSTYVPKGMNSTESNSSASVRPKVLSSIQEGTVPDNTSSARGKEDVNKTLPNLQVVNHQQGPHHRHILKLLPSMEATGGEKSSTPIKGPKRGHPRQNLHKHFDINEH

[7] = target: T5, hVCAM-1 (human, UniProt P19320); assay: direct ELISA on coated protein, IgG1
T5 construct: purified recombinant protein; member of the panel m9
T5 sequence (looked up): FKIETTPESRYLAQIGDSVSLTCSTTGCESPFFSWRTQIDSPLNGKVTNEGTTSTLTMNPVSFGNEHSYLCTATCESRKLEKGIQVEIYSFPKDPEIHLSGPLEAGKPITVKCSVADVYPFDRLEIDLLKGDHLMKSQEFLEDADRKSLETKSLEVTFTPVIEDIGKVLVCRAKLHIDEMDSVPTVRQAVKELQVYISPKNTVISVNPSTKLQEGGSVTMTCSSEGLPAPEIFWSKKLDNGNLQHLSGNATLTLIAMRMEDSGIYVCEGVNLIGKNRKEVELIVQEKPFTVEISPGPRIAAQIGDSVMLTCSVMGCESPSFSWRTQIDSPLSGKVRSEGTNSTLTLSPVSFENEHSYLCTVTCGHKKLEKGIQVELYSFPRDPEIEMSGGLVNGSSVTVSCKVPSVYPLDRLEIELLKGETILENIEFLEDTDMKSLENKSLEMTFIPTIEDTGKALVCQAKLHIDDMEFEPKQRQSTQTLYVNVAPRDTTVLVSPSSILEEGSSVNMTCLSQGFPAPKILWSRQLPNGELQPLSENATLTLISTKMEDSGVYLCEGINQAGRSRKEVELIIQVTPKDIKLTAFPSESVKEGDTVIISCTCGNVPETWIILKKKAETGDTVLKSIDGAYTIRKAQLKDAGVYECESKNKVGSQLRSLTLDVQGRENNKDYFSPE

[8] = target: T6, hEpCAM-Fc (human, UniProt P16422); assay: direct ELISA on coated protein, IgG1
T6 construct: Fc fusion; member of the panel m9
T6 sequence (looked up): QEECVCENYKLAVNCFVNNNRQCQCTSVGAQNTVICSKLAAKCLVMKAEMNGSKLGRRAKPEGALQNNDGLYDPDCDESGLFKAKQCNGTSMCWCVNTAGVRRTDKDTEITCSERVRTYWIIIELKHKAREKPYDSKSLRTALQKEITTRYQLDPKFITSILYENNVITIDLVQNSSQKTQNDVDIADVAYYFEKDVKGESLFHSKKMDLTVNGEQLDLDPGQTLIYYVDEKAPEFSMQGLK

[9] = target: T7, hDR3-Fc (human, UniProt Q93038); assay: direct ELISA on coated protein, IgG1
T7 construct: Fc fusion; member of the panel m9
T7 sequence (looked up): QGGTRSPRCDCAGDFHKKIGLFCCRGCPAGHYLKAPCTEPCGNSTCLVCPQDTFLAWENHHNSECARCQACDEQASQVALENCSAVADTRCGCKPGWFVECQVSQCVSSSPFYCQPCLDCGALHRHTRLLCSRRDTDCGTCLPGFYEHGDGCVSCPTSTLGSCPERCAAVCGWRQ

[10] = target: T8, hCMET-Fc (The natural ectodomain is cleaved by furin after residue 307 into disulfide-linked alpha and beta chains. It is given here as one continuous stretch.); assay: direct ELISA on coated protein, IgG1
T8 construct: member of the panel m9
T8 chain: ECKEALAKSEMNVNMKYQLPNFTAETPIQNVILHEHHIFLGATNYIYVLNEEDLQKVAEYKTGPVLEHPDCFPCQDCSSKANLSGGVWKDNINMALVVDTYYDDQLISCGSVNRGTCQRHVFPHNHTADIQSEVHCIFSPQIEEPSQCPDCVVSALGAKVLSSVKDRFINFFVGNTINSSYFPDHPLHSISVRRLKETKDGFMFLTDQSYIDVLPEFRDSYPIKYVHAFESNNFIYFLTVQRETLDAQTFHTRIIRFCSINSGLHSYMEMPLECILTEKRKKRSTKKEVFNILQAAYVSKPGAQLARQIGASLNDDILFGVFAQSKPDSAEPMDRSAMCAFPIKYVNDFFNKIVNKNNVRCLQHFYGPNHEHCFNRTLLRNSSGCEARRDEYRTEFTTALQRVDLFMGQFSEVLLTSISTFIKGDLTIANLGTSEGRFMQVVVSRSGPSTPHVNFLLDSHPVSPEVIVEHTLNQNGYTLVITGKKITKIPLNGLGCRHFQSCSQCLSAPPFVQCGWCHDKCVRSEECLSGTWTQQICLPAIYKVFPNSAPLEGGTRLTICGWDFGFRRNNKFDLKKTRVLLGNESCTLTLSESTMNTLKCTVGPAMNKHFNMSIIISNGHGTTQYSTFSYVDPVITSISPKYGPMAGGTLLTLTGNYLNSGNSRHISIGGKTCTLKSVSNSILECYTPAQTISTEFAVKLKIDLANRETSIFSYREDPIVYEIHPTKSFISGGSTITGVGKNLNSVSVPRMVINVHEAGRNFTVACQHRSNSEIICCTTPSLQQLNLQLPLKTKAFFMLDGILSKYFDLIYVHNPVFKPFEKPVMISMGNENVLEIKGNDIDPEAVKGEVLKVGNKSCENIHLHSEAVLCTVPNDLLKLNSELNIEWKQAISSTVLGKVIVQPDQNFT

[11] = target: T9, h4-1BB-Fc; assay: direct ELISA on coated protein, IgG1
T9 construct: member of the panel m9
T9 sequence (chain, as listed by the source limits assumed): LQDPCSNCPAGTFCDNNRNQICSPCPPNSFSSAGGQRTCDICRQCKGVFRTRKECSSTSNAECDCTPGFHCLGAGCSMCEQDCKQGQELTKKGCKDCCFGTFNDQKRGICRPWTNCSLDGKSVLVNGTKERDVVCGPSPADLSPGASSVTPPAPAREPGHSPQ

[12] = target: T10, hBAFFR-Fc (human, UniProt Q96RJ3); assay: direct ELISA on coated protein, IgG1
T10 construct: Fc fusion; member of the panel m9
T10 sequence (Q96RJ3 7-71 limits assumed): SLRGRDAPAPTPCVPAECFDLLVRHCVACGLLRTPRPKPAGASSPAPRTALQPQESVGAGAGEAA

[13] = target: T11, hVCAM-Fc; assay: direct ELISA on coated protein, IgG1
T11 construct: member of the panel m9
T11 chain: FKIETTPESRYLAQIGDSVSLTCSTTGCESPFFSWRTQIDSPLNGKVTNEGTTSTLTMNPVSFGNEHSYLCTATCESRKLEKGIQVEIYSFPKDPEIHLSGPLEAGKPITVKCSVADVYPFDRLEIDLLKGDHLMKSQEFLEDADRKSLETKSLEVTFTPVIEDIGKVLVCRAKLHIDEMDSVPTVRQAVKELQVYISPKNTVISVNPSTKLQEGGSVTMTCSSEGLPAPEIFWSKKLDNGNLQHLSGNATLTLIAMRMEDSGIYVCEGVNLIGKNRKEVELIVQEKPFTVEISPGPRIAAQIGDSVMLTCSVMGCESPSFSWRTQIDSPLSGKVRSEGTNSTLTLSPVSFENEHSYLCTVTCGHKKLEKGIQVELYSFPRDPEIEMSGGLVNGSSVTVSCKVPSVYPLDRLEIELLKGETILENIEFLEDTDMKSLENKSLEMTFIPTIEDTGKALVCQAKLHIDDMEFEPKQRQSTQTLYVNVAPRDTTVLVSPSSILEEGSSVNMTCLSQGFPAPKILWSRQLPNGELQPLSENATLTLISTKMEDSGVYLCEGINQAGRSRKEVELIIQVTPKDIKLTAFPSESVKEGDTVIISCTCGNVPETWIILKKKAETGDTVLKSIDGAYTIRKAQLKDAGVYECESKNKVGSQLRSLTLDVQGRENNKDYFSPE

[14] = target: T12, hCD4 (human, UniProt P01730); assay: direct ELISA on coated protein, IgG1
T12 construct: purified recombinant protein; member of the panel m9

[15] = target: T13, hTWEAK-Fc (human, UniProt O43508); assay: direct ELISA on coated protein, IgG1
T13 construct: Fc fusion; member of the panel m9
T13 sequence (looked up): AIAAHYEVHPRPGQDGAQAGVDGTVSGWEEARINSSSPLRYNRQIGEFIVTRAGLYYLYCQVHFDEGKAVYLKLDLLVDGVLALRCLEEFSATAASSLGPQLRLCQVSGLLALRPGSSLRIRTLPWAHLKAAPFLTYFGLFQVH

[16] = target: T14, hOX40-Fc; assay: direct ELISA on coated protein, IgG1
T14 construct: member of the panel m9
T14 chain: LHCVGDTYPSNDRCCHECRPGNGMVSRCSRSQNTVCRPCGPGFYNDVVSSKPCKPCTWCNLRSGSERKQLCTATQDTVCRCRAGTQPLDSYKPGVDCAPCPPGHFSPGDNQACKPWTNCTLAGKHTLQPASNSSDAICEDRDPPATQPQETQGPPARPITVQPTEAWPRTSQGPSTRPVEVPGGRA

[17] = target: T15, hICAM-1-Fc (human, UniProt P05362); assay: direct ELISA on coated protein, IgG1
T15 construct: Fc fusion; member of the panel m9
T15 sequence (P05362 28-480 limits assumed): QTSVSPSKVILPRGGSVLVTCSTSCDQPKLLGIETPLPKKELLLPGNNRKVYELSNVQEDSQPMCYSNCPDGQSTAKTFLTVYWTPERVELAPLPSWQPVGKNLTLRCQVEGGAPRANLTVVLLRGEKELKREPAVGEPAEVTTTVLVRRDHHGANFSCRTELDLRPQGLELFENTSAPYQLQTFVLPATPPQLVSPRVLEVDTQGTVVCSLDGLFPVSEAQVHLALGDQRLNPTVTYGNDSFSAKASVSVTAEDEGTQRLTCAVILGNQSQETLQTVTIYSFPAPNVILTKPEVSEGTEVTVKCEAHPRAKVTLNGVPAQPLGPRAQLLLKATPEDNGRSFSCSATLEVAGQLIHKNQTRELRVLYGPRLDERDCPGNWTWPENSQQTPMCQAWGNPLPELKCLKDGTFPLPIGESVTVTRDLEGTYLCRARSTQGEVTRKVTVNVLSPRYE

[18] = target: T3, hLTBR-Fc; assay: direct ELISA on coated protein, IgG1; remark: listed apart in the source
[19] = target: T4, hDR6-Fc; assay: direct ELISA on coated protein, IgG1; remark: listed apart in the source
[20] = target: T5, hVCAM-1; assay: direct ELISA on coated protein, IgG1; remark: listed apart in the source
[21] = target: T6, hEpCAM-Fc; assay: direct ELISA on coated protein, IgG1; remark: listed apart in the source
[22] = target: T7, hDR3-Fc; assay: direct ELISA on coated protein, IgG1; remark: listed apart in the source
[23] = target: T8, hCMET-Fc; assay: direct ELISA on coated protein, IgG1
[24] = target: T9, h4-1BB-Fc; assay: direct ELISA on coated protein, IgG1; remark: listed apart in the source
[25] = target: T10, hBAFFR-Fc; assay: direct ELISA on coated protein, IgG1; remark: listed apart in the source
[26] = target: T11, hVCAM-Fc; assay: direct ELISA on coated protein, IgG1
[27] = target: T12, hCD4; assay: direct ELISA on coated protein, IgG1; remark: listed apart in the source
[28] = target: T13, hTWEAK-Fc; assay: direct ELISA on coated protein, IgG1; remark: listed apart in the source
[29] = target: T14, hOX40-Fc; assay: direct ELISA on coated protein, IgG1
[30] = target: T15, hICAM-1-Fc; assay: direct ELISA on coated protein, IgG1; remark: listed apart in the source
[31] = target: T1, human C-KIT-Fc; assay: direct titration ELISA on coated C-KIT-Fc, IgG1 format

B1: E-C7 (antibody, IgG1, V domains shown)
VH: QVQLVQSGAEVKKPGASVKVSCKASGYTFTDYYMNWVRQAPGQGLEWMGRIYPGSGNTYYAQKFQGRVTMTRDTSTSTVYMELSSLRSEDTAVYYCARGVYYYDYWGQGTLVTVSS
VL: DIQMTQSPSSLSASVGDRVTITCRASQGIRTNLAWFQQKPGKAPKSLIYSASSLQSGVPSRFSGSGSGTDFTLTISSLQPEDFATYYCQQYNSYPRTFGGGTKVEIK
notes: IgG1; also called C-KIT-E-C7
OD450 nm [1]: > 1.8 OD450 nm | OD450 nm [2]: > 2 OD450 nm | IC50 [3]: 0.028 µg/mL | IC50 [4]: 0.051 µg/mL | binding result [5]: no binding (tested: 1 µg/ml) | binding result [6]: no binding (tested: 1 µg/ml) | binding result [7]: no binding (tested: 1 µg/ml) | binding result [8]: no binding (tested: 1 µg/ml) | binding result [9]: no binding (tested: 1 µg/ml) | binding result [10]: no binding (tested: 1 µg/ml) | binding result [11]: no binding (tested: 1 µg/ml) | binding result [12]: no binding (tested: 1 µg/ml) | binding result [13]: no binding (tested: 1 µg/ml) | binding result [14]: no binding (tested: 1 µg/ml) | binding result [15]: no binding (tested: 1 µg/ml) | binding result [16]: no binding (tested: 1 µg/ml) | binding result [17]: no binding (tested: 1 µg/ml)

B2: E-C2 (antibody, IgG1, V domains shown)
VH: QVQLVQSGAEVKKPGASVKVSCKASGYTFTDYYMNWVRQAPGQGLEWMGRIYPGSGNTYYAQKFQGRVTMTRDTSTSTVYMELSSLRSEDTAVYYCARGVYYLDYWGQGTLVTVSS
VL: DIQMTQSPSSLSASVGDRVTITCRASQGIRTNVAWLQQKPGKAPKSLIYSASYRQSGVPSRFSGSGSGTDFTLTISSLQPEDFATYYCQQYNSYPRTFGGGTKVEIK
notes: IgG1; also called C-KIT-E-C2
OD450 nm [1]: > 1.8 OD450 nm | OD450 nm [2]: > 2 OD450 nm | binding result [18]: no binding (tested: 1 µg/ml) | binding result [19]: no binding (tested: 1 µg/ml) | binding result [20]: no binding (tested: 1 µg/ml) | binding result [21]: no binding (tested: 1 µg/ml) | binding result [22]: no binding (tested: 1 µg/ml) | binding result [23]: no binding (tested: 1 µg/ml) | binding result [24]: no binding (tested: 1 µg/ml) | binding result [25]: no binding (tested: 1 µg/ml) | binding result [26]: no binding (tested: 1 µg/ml) | binding result [27]: no binding (tested: 1 µg/ml) | binding result [28]: no binding (tested: 1 µg/ml) | binding result [29]: no binding (tested: 1 µg/ml) | binding result [30]: no binding (tested: 1 µg/ml) | EC50 (read off the curve) [31]: ~0.1 µg/mL
